Measurements published in patent publication US20250223354A1 (BIOTHEUS, published 2025).
Blank lines part the entries; values can stand above or below the binder they belong to.

Legend:
[1] = molecular target: T1, human TIGIT expressed on cells (human, UniProt Q495A1 22-244); assay: flow cytometry on CHO cells overexpressing human TIGIT, median fluorescence intensity PE-A; unit from the concentration axis
T1 construct: whole, on cells; cDNA encoding human TIGIT in pCHO1.0 for CHO cells; also called CHO-huTIGIT cells
T1 sequence (looked up): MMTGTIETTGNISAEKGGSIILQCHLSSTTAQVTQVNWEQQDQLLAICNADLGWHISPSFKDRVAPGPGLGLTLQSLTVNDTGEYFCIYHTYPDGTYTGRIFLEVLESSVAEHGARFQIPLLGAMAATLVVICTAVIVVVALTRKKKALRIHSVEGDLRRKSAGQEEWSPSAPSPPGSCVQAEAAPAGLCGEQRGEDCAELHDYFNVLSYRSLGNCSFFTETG
Text: (§1) Specifically, CHO cells overexpressing human TIGIT (CHO-huTIGIT cells), CHO cells overexpressing cynomolgus TIGIT (CHO-cynoTIGIT cells) and CHO cells overexpressing mouse TIGIT (CHO-muTIGIT cells) were generated by transfection of the pCHO1.0 vector (purchased from Invitrogen) with cDNA encoding human TIGIT, cynomolgus TIGIT and mouse TIGIT cloned into the multiple cloning site (MCS), respectively, followed by pressure screening. The overexpressing cells were expanded and adjusted to an appropriate cell density, and added to a 96-well flow cytometry plate. After centrifugation, the cells were added with a gradiently diluted sample to be tested, and incubated at 4° C. for 30 minutes. The cells were washed twice with PBS, and added with a fluorescent secondary antibody correspondingly diluted to an appropriate concentration, then incubated at 4° C. for 30 minutes, and washed twice with PBS. Cells were resuspended with PBS, and detected on a CytoFlex flow cytometer, and the corresponding MFI was calculated. Graphpad software was used for graphical analysis to obtain EC₅₀ values.

[2] = molecular target: T1, human TIGIT expressed on cells; assay: flow cytometry, CHO-huTIGIT cells
Text: as §1

human TIGIT-his protein = molecular target: T2, human TIGIT-his protein (human, UniProt Q495A1 22-141); assay: BLI (ForteBio), IgG on AHQ sensor, 100 nM TIGIT-his, monovalent, 1:1 model
T2 construct: not shown: his tag
T2 sequence: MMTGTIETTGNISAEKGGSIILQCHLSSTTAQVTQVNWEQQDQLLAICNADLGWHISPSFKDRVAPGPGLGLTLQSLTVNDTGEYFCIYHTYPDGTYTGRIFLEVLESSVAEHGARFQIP
Protocol: Biofilm layer optical interference technology (ForteBio) was used to determine the binding and dissociation […] values of the anti-TIGIT monoclonal antibodies obtained in Example 1 to human, cynomolgus monkey and mouse TIGIT. Fortebio affinity measurements were performed according to existing methods (Este, P et al., High throughput solution-based measurement of antibody-antigen affinity and epitope binning. Mabs, 2013.5(2): p 270-8).
The antibody-loaded sensor was incubated in 100 nM TIGIT-his antigen to the plateau phase, and then the sensor was transferred to an analysis buffer and incubated for at least 2 minutes for measuring dissociation rate. The kinetic analysis was performed using a 1:1 binding model.

[3] = molecular target: T1, human TIGIT expressed on cells; assay: flow cytometry, competition with human CD155-mouse IgG2a Fc (2 ug/mL) on CHO-huTIGIT cells
Protocol: (§2) Specifically, the CHO-huTIGIT cells were expanded and adjusted to a cell density of 2×10⁶ cells/mL, added to a 96-well flow plate at 100 μL/well, and centrifuged for later use. The purified monoclonal antibodies were diluted 3-fold with PBS starting at 400 nM for a total of 12 concentration gradients. The diluted sample was added at 60 μL/well to the cells-carrying 96-well flow plate, and incubated at 4° C. for 30 minutes. […] APC-conjugated goat anti-mouse IgG antibody diluted 100-fold with PBS was added at 100 μL/well, incubated at 4° C. for 30 minutes, and washed twice with PBS. Cells were resuspended with PBS at 100 μL/well, and detected on a CytoFlex flow cytometer, and the corresponding MFI was calculated.

[4] = molecular target: T3, mouse TIGIT overexpressed on CHO cells (mouse, UniProt P86176 29-249); assay: flow cytometry blocking assay: binding of mouse CD155 protein with mouse IgG2a Fc tag to CHO cells overexpressing mouse TIGIT, median fluorescence intensity APC-A; unit from the concentration axis
T3 construct: whole, on cells; also called CHO-muTIGIT cells
T3 sequence (looked up): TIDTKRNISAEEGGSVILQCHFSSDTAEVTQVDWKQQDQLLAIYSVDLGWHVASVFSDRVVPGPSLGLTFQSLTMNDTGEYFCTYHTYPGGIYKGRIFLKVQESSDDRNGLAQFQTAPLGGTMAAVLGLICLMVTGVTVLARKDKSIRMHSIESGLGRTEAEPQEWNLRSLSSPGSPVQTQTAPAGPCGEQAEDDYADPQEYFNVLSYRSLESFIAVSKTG
Protocol: as §2, with “The CHO-muTIGIT” for “Specifically, the CHO-huTIGIT”, “purified” for “purified monoclonal”, “gradients.” for “gradients. The diluted sample was added at 60 μL/well to the cells-carrying 96-well flow plate, and incubated at 4° C. for 30 minutes.”, “calculated. Graphpad software was used for graphing analysis to obtain IC₅₀ values.” for “calculated.”

[5] = molecular target: T4, cynomolgus TIGIT overexpressed on CHO cells (cynomolgus, UniProt A0A7N9I9V4 89-312); assay: flow cytometry on CHO cells overexpressing cynomolgus TIGIT, median fluorescence intensity PE-A; unit from the concentration axis
T4 construct: whole, on cells; also called CHO-cynoTIGIT cells
T4 sequence (A0A7N9I9V4 entry or part of it): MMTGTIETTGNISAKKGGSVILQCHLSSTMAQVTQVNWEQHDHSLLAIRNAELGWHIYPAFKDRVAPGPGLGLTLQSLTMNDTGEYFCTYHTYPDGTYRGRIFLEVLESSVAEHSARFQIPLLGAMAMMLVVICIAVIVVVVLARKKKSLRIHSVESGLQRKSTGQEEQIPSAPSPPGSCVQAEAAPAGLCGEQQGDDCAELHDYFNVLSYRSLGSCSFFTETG
Text: as §1

[6] = molecular target: T3, mouse TIGIT overexpressed on CHO cells; assay: flow cytometry, competition with mouse CD155-mouse IgG2a Fc (2 ug/mL) on CHO-muTIGIT cells
Protocol: as §2, with “The CHO-muTIGIT” for “Specifically, the CHO-huTIGIT”, “purified” for “purified monoclonal”, “gradients.” for “gradients. The diluted sample was added at 60 μL/well to the cells-carrying 96-well flow plate, and incubated at 4° C. for 30 minutes.”, “calculated. Graphpad software was used for graphing analysis to obtain IC₅₀ values.” for “calculated.”

[7] = molecular target: T3, mouse TIGIT overexpressed on CHO cells; assay: flow cytometry on CHO cells overexpressing mouse TIGIT, median fluorescence intensity PE-A; unit from the concentration axis
Text: as §1

[8] = molecular target: T4, cynomolgus TIGIT overexpressed on CHO …; assay: flow cytometry, CHO-cynoTIGIT cells
Text: as §1

- EC50 [1]: 0.962 nM
- EC50 [2]: 0.96 nM
- Kd (human TIGIT-his protein): 0.199 nM
- IC50 [3]: 0.24 nM
- IC50 [4]: 1.5 nM
- EC50 [5]: 1.32 nM
- IC50 [6]: 1.5 nM
- EC50 [7]: 2.96 nM
- EC50 [8]: 1.32 nM
B1: anti-TIGIT monoclonal antibody 55796-G1 (antibody, V domains shown)
VH: QLQLQESGPGLVKPAETLSLTCTVSGGSISSYDHYWTWIRQPPGKGLEWIGTVYYSGSTFHNPSLKSRVTIPVDTSKNQFSLKLSSVTAADTAVYYCARVGPDVSHPPFDYWGQGTLVTVSS
VL: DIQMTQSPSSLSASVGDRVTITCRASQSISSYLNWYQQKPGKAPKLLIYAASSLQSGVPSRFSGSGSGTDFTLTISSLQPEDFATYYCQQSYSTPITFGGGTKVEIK
notes: Wild-type human IgG1 heavy chain constant region, human kappa light chain constant region

- EC50 [1]: 0.845 nM
- EC50 [2]: 0.84 nM
- Kd (human TIGIT-his protein): 0.21 nM
- IC50 [3]: 0.37 nM
- IC50 [4]: 1.56 nM
- EC50 [5]: 1.34 nM
- IC50 [6]: 1.56 nM
- EC50 [7]: 3.36 nM
- EC50 [8]: 1.34 nM
B2: anti-TIGIT monoclonal antibody 55796-G1LALA (antibody, V domains shown)
VH: B1 VH
VL: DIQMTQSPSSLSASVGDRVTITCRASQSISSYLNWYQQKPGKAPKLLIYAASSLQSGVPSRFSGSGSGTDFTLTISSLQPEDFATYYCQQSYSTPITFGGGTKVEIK
notes: Human IgG1 heavy chain constant region modified by L234A, L235A; human kappa light chain constant region; HEK293
